From patent publication US20110275559A1, “Long-Acting Y2 and/or Y4 Receptor Agonists” (Novo Nordisk A/S, priority 2008, published 2011) come the findings set out here.

*1 amine or outer side, *2 acyl side, *3 side chain or, on linkers, in order; H or OH if unused. Where a SMILES comes first, the peptide text is derived from it. Where no end group is shown, it is not given here. Side-chain parts run from the residue outwards. The star is where a group is joined. C20 diacid = O=C(O)CCCCCCCCCCCCCCCCCCC(=O)*; C18 diacid = O=C(O)CCCCCCCCCCCCCCCCC(=O)*; γGlu = O=C(O)[C@H](CCC(=O)[*:2])N[*:1]; Trx = NC[C@H]1CC[C@H](C(=O)O)CC1; AEEA = NCCOCCOCC(=O)O

Assay [1] concerns the target T1, Y2 receptor (Homo sapiens, UniProt P49146).
T1 construct: host or cells: ACTOne HEK-293 cells
T1 sequence (P49146 1-381): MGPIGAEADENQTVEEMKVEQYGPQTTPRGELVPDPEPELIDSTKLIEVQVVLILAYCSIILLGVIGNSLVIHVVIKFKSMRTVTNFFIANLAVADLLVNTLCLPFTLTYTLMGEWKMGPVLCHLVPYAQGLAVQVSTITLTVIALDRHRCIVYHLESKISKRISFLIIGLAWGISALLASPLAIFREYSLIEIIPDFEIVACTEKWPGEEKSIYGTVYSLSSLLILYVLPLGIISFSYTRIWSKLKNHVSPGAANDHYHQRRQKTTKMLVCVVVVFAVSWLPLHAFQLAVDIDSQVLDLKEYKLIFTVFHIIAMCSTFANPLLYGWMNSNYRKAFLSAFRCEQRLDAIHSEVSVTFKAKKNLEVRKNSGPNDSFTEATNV
The experiment in a line: Y2 receptor ACTOne based FLIPR assay (cAMP biosensor). The assay is classed as cell-based. The text has this:
ACTOne™ is an easily scaleable cAMP biosensor HTS platform for measurement of Gs and Gi coupled 7™ receptor signalling from BD Biosciences (San Jose, Calif.). The cells express a biosensor developed around a modified rat olfactory cyclic nucleotide gated (CNG) calcium channel—a fairly non-discriminatory ion channel that responds to cAMP and cGMP. The CNG has been engineered to be cAMP selective and thus function as a cAMP responsive biosensor that signals through calcium or membrane potential responsive dyes. Y2 or Y4 receptor expressing ACTOne HEK-293 cells are obtained from BD Biosciences. The cells are loaded with a calcium responsive dye that only distributes in the cytoplasm. Probenecid, an inhibitor of the organic anion transporter is added to prevent the dye from leaving the cell. A phosphodiesterase inhibitor is added to prevent formatted cAMP from being degraded. Isoproterenol (an β1/β2 agonist) is added to activate the adenylate cyclase. When an Y2 or Y4 receptor agonist is added, the adenylate cyclase is inactivated. The decreased calcium concentration in the cytoplasm is then detected as an increase in fluorescence. Together with the test substance, Isoproterenol at a concentration matching EC80, is added to all wells. • The cells are plated out in Greiner 384-well plates. […] The plates are covered with tinfoil to avoid light (the dye can be excited by the daylight, which results in higher baseline and variation). • The FLIPR (FLIPRtetra from Molecular Devices, CA, USA) adds 1 μl sample and 1 μl isoproterenol (0.05 μM final concentration) at the same time. • The fluorescence signal from the wells is measured 330 seconds after sample addition on the FLIPR.

The target of assay [2] is T2, Y2 receptor (UniProt P49146 1-381, limits assumed).
T2 sequence (looked up): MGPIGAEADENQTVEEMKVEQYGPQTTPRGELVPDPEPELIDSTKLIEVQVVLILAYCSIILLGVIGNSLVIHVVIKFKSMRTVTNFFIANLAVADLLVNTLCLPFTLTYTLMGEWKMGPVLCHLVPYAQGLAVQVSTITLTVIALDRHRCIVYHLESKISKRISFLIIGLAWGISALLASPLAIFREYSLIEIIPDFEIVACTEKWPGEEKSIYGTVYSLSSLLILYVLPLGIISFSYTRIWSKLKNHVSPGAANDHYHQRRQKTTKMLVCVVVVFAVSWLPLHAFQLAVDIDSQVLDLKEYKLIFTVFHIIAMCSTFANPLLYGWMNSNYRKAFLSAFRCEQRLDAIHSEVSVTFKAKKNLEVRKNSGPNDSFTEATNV
The experiment in a line: cell-based or functional assay.

The target of assay [3] is Y4 receptor (UniProt P50391 1-375, limits assumed). The experiment in a line: cell-based or functional assay.
Y4 receptor, sequence (P50391 whole entry): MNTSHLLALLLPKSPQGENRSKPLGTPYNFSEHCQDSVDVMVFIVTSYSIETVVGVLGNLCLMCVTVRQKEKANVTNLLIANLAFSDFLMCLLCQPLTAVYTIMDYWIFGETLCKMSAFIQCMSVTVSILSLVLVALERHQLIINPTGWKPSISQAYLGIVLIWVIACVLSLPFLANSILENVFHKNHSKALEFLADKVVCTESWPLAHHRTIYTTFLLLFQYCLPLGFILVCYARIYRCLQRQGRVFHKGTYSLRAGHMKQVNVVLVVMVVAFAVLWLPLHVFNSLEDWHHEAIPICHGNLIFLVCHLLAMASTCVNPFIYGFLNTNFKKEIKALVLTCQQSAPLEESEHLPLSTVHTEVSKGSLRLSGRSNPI

Usually EC50 stands for the concentration giving half of the maximal effect. With `CC[C@H](C)[C@H](NC(=O)[C@H](Cc1ccc(O)cc1)NC(=O)[C@H](CCCNC(=N)N)NC(=O)[C@H](CCCNC(=N)N)NC(=O)[C@H](CC(C)C)NC(=O)[C@H](CC(=O)O)NC(=O)[C@H](C)NC(=O)[C@H](C)NC(=O)[C@H](Cc1ccc(O)cc1)NC(=O)[C@H](CCC(N)=O)NC(=O)[C@H](C)NC(=O)[C@H](CC(C)C)NC(=O)[C@H](CCC(N)=O)NC(=O)[C@H](CCC(=O)O)NC(=O)[C@@H]1CCCN1C(=O)[C@H](CCCCNC(=O)COCCOCCNC(=O)COCCOCCNC(=O)CC[C@H](NC(=O)[C@H]1CC[C@H](CNC(=O)CCCCCCCCCCCCCCCCCCC(=O)O)CC1)C(=O)O)NC(=O)[C@H](C)NC(=O)[C@H](CC(N)=O)NC(=O)[C@H](CC(=O)O)NC(=O)CNC(=O)[C@@H]1CCCN1C(=O)[C@H](Cc1ccc(O)cc1)NC(=O)[C@@H](NC(=O)[C@@H]1CCCN1C(=O)[C@H](CCC(=O)O)NC(=O)[C@H](CC(C)C)NC(=O)[C@@H]1CCCN1C(=O)[C@H](C)N)C(C)C)C(=O)N[C@@H](CCC(N)=O)C(=O)N[C@@H](CC(C)C)C(=O)N[C@@H](CC(C)C)C(=O)N[C@H](C(=O)N[C@@H](CCCNC(=N)N)C(=O)N1CCC[C@H]1C(=O)N[C@@H](CCCNC(=N)N)C(=O)N[C@@H](Cc1ccc(O)cc1)C(N)=O)[C@@H](C)O` [SEQ ID NO: 18, N-epsilon13-[2-(2-{2-[2-(2-{2-[(S)-4-Carboxy-4-({trans-4-[(19-carboxynonadecanoylamino)methyl]cyclohexanecarbonyl}amino)butyrylamino]-ethoxy}ethoxy)acetylamino]ethoxy}ethoxy)acetyl][Lys13,Leu17,Gln29,Leu30]hPP(1-36)] (H-APLEPVYPGDNAK([AEEA-AEEA-γGlu-Trx-C20 diacid])PEQLAQYAADLRRYIQLLTRPRY-NH2), in assay [1], the EC50 is over 1000 nM. PLEPVYPGDNATPEQLAQYAADLRRYINLLTK([AEEA-AEEA-γGlu-C18 diacid])PRY (ends and bridges not checked): the “Y2 cAMP EC50” value in assay [2] was over 1000 nM. Moreover, in assay [3], the “Y4 cAMP EC50” value was over 1000 nM.

B1: N-alfa-[2-(2-{2-[2-(2-{2-[(S)-4-Carboxy-4-({trans-4-[(19-carboxynonadecanoylamino)methyl]cyclohexanecarbonyl}amino)butyrylamino]-ethoxy}ethoxy)acetylamino]ethox … (peptide)
peptide: APLEPVYPGDNATPEQLAQYAADLRRYINLLTRPRY
modifications: not fully specified (N-terminus); printed as N-alfa-[2-(2-{2-[2-(2-{2-[(S)-4-Carboxy-4-({trans-4-[(19-carboxynonadecanoylamino)methyl]cyclohexanecarbonyl}amino)butyrylamino]-ethoxy}ethoxy)acetylamino]ethoxy}ethoxy)acetyl][Leu17,Leu30]hPP1-36; ends and bridges not checked
Take B1: the “Y2 cAMP EC50” value in assay [2] was over 1000 nM. Besides, in assay [3], the “Y4 cAMP EC50” value is 3.2 nM. With PLEPVYPGDK([AEEA-AEEA-γGlu-Trx-C20 diacid])ATPEQLAQYAADLRRYINLLTRPRY (ends and bridges not checked), in assay [2], the “Y2 cAMP EC50” value is over 1000 nM. Further, the “Y4 cAMP EC50” value in assay [3] was determined as 2 nM. In the same order, the values of PLEPVYPGDNATPEQLK([AEEA-AEEA-γGlu-Trx-C20 diacid])QYAADLRRYINLLTRPRY (ends and bridges not checked) are over 1000 nM and 0.8 nM.

Take PLEPVYPGDNATPEQLAQYAADLRRYIK([AEEA-AEEA-γGlu-Trx-C20 diacid])LLTRPRY (ends and bridges not checked): the “Y2 cAMP EC50” value in assay [2] was over 1000 nM. Besides, the “Y4 cAMP EC50” value in assay [3] is over 890 nM.

PLEPVYPGDNATPEQLAQYAADLRK([AEEA-AEEA-γGlu-Trx-C20 diacid])YINLLTRPRY (ends and bridges not checked): the “Y2 cAMP EC50” value in assay [2] was over 1000 nM. In addition, the “Y4 cAMP EC50” value in assay [3] worked out at 7 nM.

APLEPVYPGDNAK([AEEA-AEEA-γGlu-Trx-C20 diacid])PEQLAQYAADLRRYLNVLTRQRY (ends and bridges not checked): the “Y2 cAMP EC50” value in assay [2] came to 73 nM. Besides, the “Y4 cAMP EC50” value in assay [3] turned out to be 7 nM.

For APLEPVYPGDNAK([AEEA-AEEA-γGlu-Trx-C20 diacid])PEQLAQYAADLRRYINLLTRQRY (ends and bridges not checked), in assay [2], the “Y2 cAMP EC50” value was found to be 54 nM. For the same molecule, the “Y4 cAMP EC50” value in assay [3] came to 18 nM. As to PLEPVYPGDNATPEQLAQYAADLRRYINLLTK([AEEA-AEEA-γGlu-Trx-C20 diacid])PRY (ends and bridges not checked), the “Y2 cAMP EC50” value in assay [2] is over 1000 nM. Also, the “Y4 cAMP EC50” value in assay [3] is over 1000 nM. In the case of APLEPVYPGDNAK([AEEA-AEEA-γGlu-Trx-C20 diacid])PEQLAQYAADLRRYIQLLTRPRY (ends and bridges not checked), the “Y2 cAMP EC50” value in assay [2] is over 1000 nM. The “Y4 cAMP EC50” value in assay [3] amounted to 130 nM. Regarding APLEPVYPGNDAK([AEEA-AEEA-γGlu-Trx-C20 diacid])PEQLAQYAADLRRYINLVTRPRY (ends and bridges not checked), the “Y2 cAMP EC50” value in assay [2] was found to be 92 nM. Besides, the “Y4 cAMP EC50” value in assay [3] turned out to be 18 nM.

As to PLEPVYPGDNATPEQLAQYAADLRRYINLLTRPK([AEEA-AEEA-γGlu-C18 diacid])Y (ends and bridges not checked), the “Y2 cAMP EC50” value in assay [2] was over 1000 nM. Besides, in assay [3], the “Y4 cAMP EC50” value was over 1000 nM. PLEPVYPGDNATPEQLAQYAADLRK([AEEA-AEEA-γGlu-C18 diacid])YINLLTRPRY (ends and bridges not checked): in assay [2], the “Y2 cAMP EC50” value is over 1000 nM. The “Y4 cAMP EC50” value in assay [3] was determined as 5 nM.

Consider PLEPVYPGDNATPEQLAQYAADLRRYINLLTRPRY (ends and bridges not checked) [[Leu17,Leu30]hPP2-36], for which the “Y2 cAMP EC50” value in assay [2] is over 1000 nM. The “Y4 cAMP EC50” value in assay [3] stood at 0.9 nM.

With APLEPVYPGDNAK([AEEA-AEEA-γGlu-Trx-C20 diacid])PEQLAQYAADLRRYINVLTRQRY (ends and bridges not checked), in assay [2], the “Y2 cAMP EC50” value worked out at 130 nM. For the same molecule, the “Y4 cAMP EC50” value in assay [3] came out at 7 nM. On the same counts, the results for PLEPVYPGDNATPEQLK([AEEA-AEEA-γGlu-C18 diacid])QYAADLRRYINLLTRPRY (ends and bridges not checked) are over 1000 nM and 0.4 nM. In the same order, the values of PLEPVYPGDK([AEEA-AEEA-γGlu-C18 diacid])ATPEQLAQYAADLRRYINLLTRPRY (ends and bridges not checked) are over 1000 nM and 1 nM. In the same order, the values of PLEPVYPGDNATPEQLAQYAADLK([AEEA-AEEA-γGlu-Trx-C20 diacid])RYINLLTRPRY (ends and bridges not checked) are over 1000 nM and over 1000 nM. In the case of APLEPVYPGDNAK([AEEA-AEEA-γGlu-Trx-C20 diacid])PEQLAQYAADLRRYVNLLTRQRY (ends and bridges not checked), the “Y2 cAMP EC50” value in assay [2] stood at 63 nM. The “Y4 cAMP EC50” value in assay [3] came out at 65 nM.
